From publication PMC4108476

Target: T1, [2Fe-2S]-IscR wild type (Escherichia coli, UniProt P0AGK8 1-162)
T1 sequence: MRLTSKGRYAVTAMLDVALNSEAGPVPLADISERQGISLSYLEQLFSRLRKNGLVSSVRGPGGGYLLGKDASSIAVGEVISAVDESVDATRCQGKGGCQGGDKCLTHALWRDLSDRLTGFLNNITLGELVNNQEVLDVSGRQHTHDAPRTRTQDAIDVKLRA
Experiment: fluorescence anisotropy

B1: PiscR site B 30-mer (dsDNA)
DNA 1: AAATAGTTGACCAATTTACTCGGGAATGTC
DNA 2: GACATTCCCGAGTAAATTGGTCAACTATTT
Kd: 112 ± 2 nM
